Results taken from article PMC4441847 (The Biochemical journal, 2015).

Biological target: Recombinant FEN-1 (pET-FEN-1) (human, UniProt P39748 1-380)
Experiment: pull-down

Recombinant FEN-1 (pET-FEN-1), sequence (P39748 whole entry): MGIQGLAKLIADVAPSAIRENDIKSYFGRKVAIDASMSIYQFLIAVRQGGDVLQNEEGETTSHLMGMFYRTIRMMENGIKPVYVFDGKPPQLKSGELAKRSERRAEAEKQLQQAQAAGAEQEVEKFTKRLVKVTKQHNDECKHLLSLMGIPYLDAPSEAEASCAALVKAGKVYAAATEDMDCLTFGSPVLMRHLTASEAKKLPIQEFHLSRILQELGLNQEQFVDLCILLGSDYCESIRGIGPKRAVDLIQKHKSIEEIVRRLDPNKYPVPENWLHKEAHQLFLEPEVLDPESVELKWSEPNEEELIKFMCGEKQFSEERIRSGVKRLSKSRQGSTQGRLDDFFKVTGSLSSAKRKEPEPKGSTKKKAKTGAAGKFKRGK

| Binder | binding result |
| --- | --- |
| GST-RECQ1 RQC domain (residues 418-592) (domain or fragment, human, UniProt P46063 418-592, looked up) YGFGDIFRISSMVVMENVGQQKLYEMVSYCQNISKCRRVLMAQHFDEVWNSEACNKMCDNCCKDSAFERKNITEYCRDLIKILKQAEELNEKLTPLKLIDSWMGKGAAKLRVAGVVAPTLPREDLEKIIAHFLIQQYLKEDYSFTAYATISYLKIGPKANLLNNEAHAITMQVTK | binds |
| GST-RECQ1 C-terminal domain (residues 592-649) (domain or fragment, human, UniProt P46063 592-649, looked up) KSTQNSFRAESSQTCHSEQGDKKMEEKNSGNFQKKAANMLQQSGSKNTGAKKRKIDDA | binds |
